In patent US20190010227A1 (WELSON PHARMACEUTICALS, published 2019):

How the values were obtained:
[1] = molecular target: T1, EGFR on A431 cell surface (human, UniProt P00533 25-1210); experiment: cell-based ELISA on A431 cells, HRP-conjugated goat anti-mouse IgG, TMB, OD450
T1 construct: whole, on cells; also called EGFR expressed on A431 cell surface; EGFR on live A431 cell surface
Method: (§1) 3. Cell ELISA assay A431 cells were seeded at 20,000 cells/well of 96-well plate in DMEM-10% FBS and incubated at 37° C. 5% CO₂. 24 hours later, discard the medium. After two washes with PBS and blocking with 5% skim-milk/PBS for 1 h, wells were incubated with different concentration of mLA22 and hLA22 in 5% skim-milk-PBS for another one hour. After two washes with PBS, wells were then incubated with HRP-conjugated goat anti-mouse IgG secondary antibodies or HRP-conjugated goat anti-human IgG secondary antibodies (Jackson Lab) in 5% skim-milk-PBS for 1 h at room temperature. After washes with PBS, HRP substrate 3, 3′, 5, 5′-tetramethylbenzidine (TMB) solution was added. The reaction was stopped with stop solution (0.1M […]) and absorbance was measured at 450 nm with a microplate reader.

[2] = molecular target: T2, ECD of rec. EGFR (human, UniProt P00533 25-645); experiment: SPR (BIAcore), chip coated with ECD of rec. EGFR
T2 construct: extracellular domain; also called human epidermal factor receptor (EGFR)
Source text: 1. Biacore assay. To test the affinity between human epidermal factor receptor (EGFR) and the present invention of humanized anti-EGFR antibody using BIAcore system which is based on the surface plasmon resonance technique, the chip was coated with ECD of rec. EGFR.

[3] = molecular target: T1, EGFR on A431 cell surface; experiment: cell-based ELISA on A431 cells, HRP-conjugated goat anti-human IgG, TMB, OD450
Method: as §1

Binder | EC50 (read off the curve) [1] [µg/mL] | Kd [2] [nM] | koff [2] [s⁻¹] | kon [2] [M⁻¹ s⁻¹] | EC50 (read off the curve) [3] [µg/mL]
Humanized LA22 (H1 + h2) (antibody, human IgG1, V domains shown, Human IgG1 / kappa constant regions; also called H1-LA22 / h2-LA22) VH: EVQLVESGGGLVQPGGSLRLSCESNEYEFPSHDMSWVRQAPGKGLEWVSAITSDGISTYYPDTMERRFTISRDNSKNTLYLQMNSLRAEDTAVYYCARHDWDEGFASWGQGTLVTVSS VL: DVVMTQSPLSLPVTLGQPASISCRSSQSLVHSNGNTYLHWYQQRPGQSPRLLIYKVSNRFSGVPDRFSGSGSGTDFTLKISRVEAEDVGIYFCSQSSHVPPAFGGGTKLEIK | – | 14 | 0.000146 | 10400 | –
Humanized LA22 (H0 + h2) (antibody, human IgG1, V domains shown, Human IgG1 / kappa constant regions; also called HO-LA22 / h2-LA22) VH: EVQLVESGGGLVQPGGSLRLSCAASEYEFPSHDMSWVRQAPGKGLEWVSAITSDGISTYYPDTMERRFTISRDNSKNTLYLQMNSLRAEDTAVYYCARHDWDEGFASWGQGTLVTVSS VL: DVVMTQSPLSLPVTLGQPASISCRSSQSLVHSNGNTYLHWYQQRPGQSPRLLIYKVSNRFSGVPDRFSGSGSGTDFTLKISRVEAEDVGIYFCSQSSHVPPAFGGGTKLEIK | – | 13.2 | 6.9e-05 | 5200 | –
Humanized LA22 (H2 + h2) (antibody, human IgG1, V domains shown, Human IgG1 / kappa constant regions; also called H2-LA22 / h2-LA22) VH: EVQLVESGGGLVQPGGSLRLSCESNEYEFPSHDMSWVRQAPGKGLEWVSAITSDGISTYYPDTMERRFTISRDNTKKTLYLQMNSLRAEDTAVYYCARHDWDEGFASWGQGTLVTVSS VL: DVVMTQSPLSLPVTLGQPASISCRSSQSLVHSNGNTYLHWYQQRPGQSPRLLIYKVSNRFSGVPDRFSGSGSGTDFTLKISRVEAEDVGIYFCSQSSHVPPAFGGGTKLEIK | – | 12 | 7.7e-05 | 6400 | –

Next, values leading:

EC50 (read off the curve) [1] [µg/mL] | Kd [2] [nM] | koff [2] [s⁻¹] | kon [2] [M⁻¹ s⁻¹] | EC50 (read off the curve) [3] [µg/mL] | Binder
~1 | 2 | 4.3e-05 | 22000 | – | Mouse monoclonal antibody LA22 (antibody, V domains shown, Mouse hybridoma antibody (ATCC deposit, US 5,459,061); the mouse constant regions are not; also called mLA22; mouse LA22) VH: EVQLVESGGGLVQPGESLKLSCESNEYEFPSHDMSWVRKTPEERLELVAAITSDGISTYYPDTMERRFLISRDNTKKTLYLQMSSLRSEDTALYYCSRHDWDEGFASWGQGTLVTVSA VL: DVVMTQTPLSLPVSLGDQASISCRSSQSLVHSNGNTYLHWYLQKPGQSPKLLIYKVSNRFSGVPDRFSGSGSGTDFTLKISRVEAEDLGIYFCSQSSHVPPAFGGGTKLEIK
– | 2.3 | 3.8e-05 | 16400 | ~1 | Humanized LA22 (H3 + h2) (antibody, V domains shown, also called hLA22; hLA22 h2H3) VH: EVQLVESGGGLVQPGGSLRLSCASNEYEFPSHDMSWVRQTPGKGLEWVSAITSDGISTYYPDTMERRFTISRDNSKNTLYLQMSSLRAEDTAVYYCARHDWDEGFASWGQGTLVTVSS VL: DVVMTQSPLSLPVTLGQPASISCRSSQSLVHSNGNTYLHWYQQRPGQSPRLLIYKVSNRFSGVPDRFSGSGSGTDFTLKISRVEAEDVGIYFCSQSSHVPPAFGGGTKLEIK
– | 15.4 | 0.000188 | 12200 | – | Humanized LA22 (H4 + h2) (antibody, human IgG1, V domains shown, Human IgG1 / kappa constant regions; also called H4-LA22 / h2-LA22) VH: EVQLVESGGGLVQPGGSLRLSCASNEYEFPSHDMSWVRQTPGKRLEWVSAITSDGISTYYPDTMERRFTISRDNSKNTLYLQMSSLRAEDTAVYYCARHDWDEGFASWGQGTLVTVSS VL: DVVMTQSPLSLPVTLGQPASISCRSSQSLVHSNGNTYLHWYQQRPGQSPRLLIYKVSNRFSGVPDRFSGSGSGTDFTLKISRVEAEDVGIYFCSQSSHVPPAFGGGTKLEIK
